Data published in US10647739B2, “Flavonoids O-A-glucosylated on the B cycle, method for the production thereof and uses” (Institut National de la Recherche Agronomique, priority 2014, dated 2020).

Experiments:
[1] = apigenin glucosylation acceptor reaction with recombinant glucansucrases (microplate screening); format: biochemical; settings: sucrose 146 mM, apigenin 2.5 mM, 3% DMSO, 30° C., 24 h; HPLC-UV 340 nm peak areas
Description: (§1) The enzymatic extracts obtained are used to carry out the flavonoid glucosylation enzymatic screening reactions. The enzymatic activity of each centrifuged cell lysate is evaluated in the microplate format, by final weight after 30 minutes incubation in the presence of a final concentration of 146 mM of sucrose, by assaying the reducing sugars with 3,5-dinitrosalicylic acid (DNS). Finally, after dilution in ultrapure water, the absorbance is read at 540 nm.
(§2) The flavonoid acceptor reactions are then carried out in deep-well microplates, in a volume of 300 μl, at final concentrations of sucrose of 146 mM and of flavonoid of 2.5 mM (apigenin) or 5 mM (naringenin) (initially dissolved in 100% DMSO), and 140 μl of centrifuged cell lysate.
(§3) The final DMSO concentration in the reaction medium is 3% (v/v).
(§4) The incubation is carried out at 30° C. and at 700 rpm. After 24 hours, the enzymes are denatured at 95° C. for 15 minutes. These microplates are stored at −80° C. with a view to rapid evaluation of the flavonoid glucosylation by liquid-phase chromatography coupled to mass spectrometry (HPLC-MS or LC-MS).
(§5) With a view to their analyses by HPLC-MS, the extensively homogenized reaction media are diluted to 1/30th in DMSO. The separation of the flavonoids and of their glucosylated forms is carried out in reverse phase with a ProntoSlL Eurobond® 53×3.0 mm 120-3-C18-AQ column (porosity of 120 Å, particle size of 3 μm, C18 grafting, Bischoff Chromatography, Germany).
(§6) The flavonoid glucosylation efficiency was determined from the following formula: Glucosylation efficiency=(Σ(area of the peak of glucosylated flavonoid(s)))/(Σ(area of the peak of glucosylated flavonoid(s))+area of the peak of residual aglycone flavonoid)×100
(§7) The flavonoid glucosylation efficiencies, expressed as a percentage, were calculated from the areas of the peaks of the various products analyzed, as described in example 1, by HPLC with a UV detector (340 nm) after 24 h of reaction.

[2] = naringenin glucosylation acceptor reaction with recombinant glucansucrases (microplate screening); format: biochemical; settings: sucrose 146 mM, naringenin 5 mM, 3% DMSO, 30° C., 24 h; HPLC-UV 340 nm peak areas
Description: as §1, §2, §3, §4, §5, §6
as §7, with “The flavonoid glucosylation efficiency was determined from the formula set out in example 2. The” for “The”, “(λ340 nm),” for “(340 nm)”

| Molecule | apigenin glucosylation efficiency [1] [%] | naringenin glucosylation efficiency [2] [%] |
| --- | --- | --- |
| V331L: ASNp amylosucrase single mutant (protein, UniProt Q9ZEU2 1-636, looked up, variant V331L) Amylosucrase: MLTPTQQVGLILQYLKTRILDIYTPEQRAGIEKSEDWRQFSRRMDTHFPKLMNELDSVYGNNEALLPMLEMLLAQAWQSYSQRNSSLKDIDIARENNPDWILSNKQVGGVCYVDLFAGDLKGLKDKIPYFQELGLTYLHLMPLFKCPEGKSDGGYAVSSYRDVNPALGTIGDLREVIAALHEAGISAVVDFIFNHTSNEHEWAQRCAAGDPLFDNFYYIFPDRRMPDQYDRTLREIFPDQHPGGFSQLEDGRWVWTTFNSFQWDLNYSNPWVFRAMAGEMLFLANLGVDILRMDAVAFIWKQMGTSCENLPQAHALIRAFNAVMRIAAPALFFKSEAIVHPDQVVQYIGQDECQIGYNPLQMALLWNTLATREVNLLHQALTYRHNLPEHTAWVNYVRSHDDIGWTFADEDAAYLGISGYDHRQFLNRFFVNRFDGSFARGVPFQYNPSTGDCRVSGTAAALVGLAQDDPHAVDRIKLLYSIALSTGGLPLIYLGDEVGTLNDDDWSQDSNKSDDSRWAHRPRYNEALYAQRNDPSTAAGQIYQGLRHMIAVRQSNPRFDGGRLVTFNTNNKHIIGYIRNNALLAFGNFSEYPQTVTAHTLQAMPFKAHDLIGGKTVSLNQDLTLQPYQVMWLEIA | 0.3 | 0.0 |
| V331N: ASNp amylosucrase single mutant (protein, UniProt Q9ZEU2 1-636, looked up, variant V331N) Amylosucrase: MLTPTQQVGLILQYLKTRILDIYTPEQRAGIEKSEDWRQFSRRMDTHFPKLMNELDSVYGNNEALLPMLEMLLAQAWQSYSQRNSSLKDIDIARENNPDWILSNKQVGGVCYVDLFAGDLKGLKDKIPYFQELGLTYLHLMPLFKCPEGKSDGGYAVSSYRDVNPALGTIGDLREVIAALHEAGISAVVDFIFNHTSNEHEWAQRCAAGDPLFDNFYYIFPDRRMPDQYDRTLREIFPDQHPGGFSQLEDGRWVWTTFNSFQWDLNYSNPWVFRAMAGEMLFLANLGVDILRMDAVAFIWKQMGTSCENLPQAHALIRAFNAVMRIAAPANFFKSEAIVHPDQVVQYIGQDECQIGYNPLQMALLWNTLATREVNLLHQALTYRHNLPEHTAWVNYVRSHDDIGWTFADEDAAYLGISGYDHRQFLNRFFVNRFDGSFARGVPFQYNPSTGDCRVSGTAAALVGLAQDDPHAVDRIKLLYSIALSTGGLPLIYLGDEVGTLNDDDWSQDSNKSDDSRWAHRPRYNEALYAQRNDPSTAAGQIYQGLRHMIAVRQSNPRFDGGRLVTFNTNNKHIIGYIRNNALLAFGNFSEYPQTVTAHTLQAMPFKAHDLIGGKTVSLNQDLTLQPYQVMWLEIA | 1.0 | 0.0 |
| V331Q: ASNp amylosucrase single mutant (protein, UniProt Q9ZEU2 1-636, looked up, variant V331Q) Amylosucrase: MLTPTQQVGLILQYLKTRILDIYTPEQRAGIEKSEDWRQFSRRMDTHFPKLMNELDSVYGNNEALLPMLEMLLAQAWQSYSQRNSSLKDIDIARENNPDWILSNKQVGGVCYVDLFAGDLKGLKDKIPYFQELGLTYLHLMPLFKCPEGKSDGGYAVSSYRDVNPALGTIGDLREVIAALHEAGISAVVDFIFNHTSNEHEWAQRCAAGDPLFDNFYYIFPDRRMPDQYDRTLREIFPDQHPGGFSQLEDGRWVWTTFNSFQWDLNYSNPWVFRAMAGEMLFLANLGVDILRMDAVAFIWKQMGTSCENLPQAHALIRAFNAVMRIAAPAQFFKSEAIVHPDQVVQYIGQDECQIGYNPLQMALLWNTLATREVNLLHQALTYRHNLPEHTAWVNYVRSHDDIGWTFADEDAAYLGISGYDHRQFLNRFFVNRFDGSFARGVPFQYNPSTGDCRVSGTAAALVGLAQDDPHAVDRIKLLYSIALSTGGLPLIYLGDEVGTLNDDDWSQDSNKSDDSRWAHRPRYNEALYAQRNDPSTAAGQIYQGLRHMIAVRQSNPRFDGGRLVTFNTNNKHIIGYIRNNALLAFGNFSEYPQTVTAHTLQAMPFKAHDLIGGKTVSLNQDLTLQPYQVMWLEIA | 0.2 | 6.8 |
| V331S: ASNp amylosucrase single mutant (protein, UniProt Q9ZEU2 1-636, looked up, variant V331S) Amylosucrase: MLTPTQQVGLILQYLKTRILDIYTPEQRAGIEKSEDWRQFSRRMDTHFPKLMNELDSVYGNNEALLPMLEMLLAQAWQSYSQRNSSLKDIDIARENNPDWILSNKQVGGVCYVDLFAGDLKGLKDKIPYFQELGLTYLHLMPLFKCPEGKSDGGYAVSSYRDVNPALGTIGDLREVIAALHEAGISAVVDFIFNHTSNEHEWAQRCAAGDPLFDNFYYIFPDRRMPDQYDRTLREIFPDQHPGGFSQLEDGRWVWTTFNSFQWDLNYSNPWVFRAMAGEMLFLANLGVDILRMDAVAFIWKQMGTSCENLPQAHALIRAFNAVMRIAAPASFFKSEAIVHPDQVVQYIGQDECQIGYNPLQMALLWNTLATREVNLLHQALTYRHNLPEHTAWVNYVRSHDDIGWTFADEDAAYLGISGYDHRQFLNRFFVNRFDGSFARGVPFQYNPSTGDCRVSGTAAALVGLAQDDPHAVDRIKLLYSIALSTGGLPLIYLGDEVGTLNDDDWSQDSNKSDDSRWAHRPRYNEALYAQRNDPSTAAGQIYQGLRHMIAVRQSNPRFDGGRLVTFNTNNKHIIGYIRNNALLAFGNFSEYPQTVTAHTLQAMPFKAHDLIGGKTVSLNQDLTLQPYQVMWLEIA | 0.4 | 6.7 |
| V331R: ASNp amylosucrase single mutant (protein, UniProt Q9ZEU2 1-636, looked up, variant V331R) Amylosucrase: MLTPTQQVGLILQYLKTRILDIYTPEQRAGIEKSEDWRQFSRRMDTHFPKLMNELDSVYGNNEALLPMLEMLLAQAWQSYSQRNSSLKDIDIARENNPDWILSNKQVGGVCYVDLFAGDLKGLKDKIPYFQELGLTYLHLMPLFKCPEGKSDGGYAVSSYRDVNPALGTIGDLREVIAALHEAGISAVVDFIFNHTSNEHEWAQRCAAGDPLFDNFYYIFPDRRMPDQYDRTLREIFPDQHPGGFSQLEDGRWVWTTFNSFQWDLNYSNPWVFRAMAGEMLFLANLGVDILRMDAVAFIWKQMGTSCENLPQAHALIRAFNAVMRIAAPARFFKSEAIVHPDQVVQYIGQDECQIGYNPLQMALLWNTLATREVNLLHQALTYRHNLPEHTAWVNYVRSHDDIGWTFADEDAAYLGISGYDHRQFLNRFFVNRFDGSFARGVPFQYNPSTGDCRVSGTAAALVGLAQDDPHAVDRIKLLYSIALSTGGLPLIYLGDEVGTLNDDDWSQDSNKSDDSRWAHRPRYNEALYAQRNDPSTAAGQIYQGLRHMIAVRQSNPRFDGGRLVTFNTNNKHIIGYIRNNALLAFGNFSEYPQTVTAHTLQAMPFKAHDLIGGKTVSLNQDLTLQPYQVMWLEIA | 0.2 | 0.0 |
| V331M: ASNp amylosucrase single mutant (protein, UniProt Q9ZEU2 1-636, looked up, variant V331M) Amylosucrase: MLTPTQQVGLILQYLKTRILDIYTPEQRAGIEKSEDWRQFSRRMDTHFPKLMNELDSVYGNNEALLPMLEMLLAQAWQSYSQRNSSLKDIDIARENNPDWILSNKQVGGVCYVDLFAGDLKGLKDKIPYFQELGLTYLHLMPLFKCPEGKSDGGYAVSSYRDVNPALGTIGDLREVIAALHEAGISAVVDFIFNHTSNEHEWAQRCAAGDPLFDNFYYIFPDRRMPDQYDRTLREIFPDQHPGGFSQLEDGRWVWTTFNSFQWDLNYSNPWVFRAMAGEMLFLANLGVDILRMDAVAFIWKQMGTSCENLPQAHALIRAFNAVMRIAAPAMFFKSEAIVHPDQVVQYIGQDECQIGYNPLQMALLWNTLATREVNLLHQALTYRHNLPEHTAWVNYVRSHDDIGWTFADEDAAYLGISGYDHRQFLNRFFVNRFDGSFARGVPFQYNPSTGDCRVSGTAAALVGLAQDDPHAVDRIKLLYSIALSTGGLPLIYLGDEVGTLNDDDWSQDSNKSDDSRWAHRPRYNEALYAQRNDPSTAAGQIYQGLRHMIAVRQSNPRFDGGRLVTFNTNNKHIIGYIRNNALLAFGNFSEYPQTVTAHTLQAMPFKAHDLIGGKTVSLNQDLTLQPYQVMWLEIA | 0.1 | 0.0 |
| V331P: ASNp amylosucrase single mutant (protein, UniProt Q9ZEU2 1-636, looked up, variant V331P) Amylosucrase: MLTPTQQVGLILQYLKTRILDIYTPEQRAGIEKSEDWRQFSRRMDTHFPKLMNELDSVYGNNEALLPMLEMLLAQAWQSYSQRNSSLKDIDIARENNPDWILSNKQVGGVCYVDLFAGDLKGLKDKIPYFQELGLTYLHLMPLFKCPEGKSDGGYAVSSYRDVNPALGTIGDLREVIAALHEAGISAVVDFIFNHTSNEHEWAQRCAAGDPLFDNFYYIFPDRRMPDQYDRTLREIFPDQHPGGFSQLEDGRWVWTTFNSFQWDLNYSNPWVFRAMAGEMLFLANLGVDILRMDAVAFIWKQMGTSCENLPQAHALIRAFNAVMRIAAPAPFFKSEAIVHPDQVVQYIGQDECQIGYNPLQMALLWNTLATREVNLLHQALTYRHNLPEHTAWVNYVRSHDDIGWTFADEDAAYLGISGYDHRQFLNRFFVNRFDGSFARGVPFQYNPSTGDCRVSGTAAALVGLAQDDPHAVDRIKLLYSIALSTGGLPLIYLGDEVGTLNDDDWSQDSNKSDDSRWAHRPRYNEALYAQRNDPSTAAGQIYQGLRHMIAVRQSNPRFDGGRLVTFNTNNKHIIGYIRNNALLAFGNFSEYPQTVTAHTLQAMPFKAHDLIGGKTVSLNQDLTLQPYQVMWLEIA | 0.0 | 0.0 |
